This is an account of results in patent publication US20110301335A1 (published 2011).

Residue numbers refer to the chain shown, from its start.

The labels stand for the following.
T1: human TNFR1 on MRC-5 cells (human, UniProt P19438 30-455)
T1 sequence (looked up): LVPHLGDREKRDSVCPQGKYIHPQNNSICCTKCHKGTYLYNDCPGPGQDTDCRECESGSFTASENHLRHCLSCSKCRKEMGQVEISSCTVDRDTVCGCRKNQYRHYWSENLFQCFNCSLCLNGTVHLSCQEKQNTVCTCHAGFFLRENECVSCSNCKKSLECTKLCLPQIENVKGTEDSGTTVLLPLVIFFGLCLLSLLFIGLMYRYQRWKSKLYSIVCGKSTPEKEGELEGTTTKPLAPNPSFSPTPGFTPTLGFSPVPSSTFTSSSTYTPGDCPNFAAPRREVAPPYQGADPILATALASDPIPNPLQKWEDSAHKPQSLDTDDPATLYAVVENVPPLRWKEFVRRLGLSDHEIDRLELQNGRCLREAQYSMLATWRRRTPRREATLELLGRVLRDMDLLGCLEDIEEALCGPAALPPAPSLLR

B1: DOM1h-574 (other)
VH: EVQLLESGGGLVQPGGSLRLSCAASGFTFVKYSMGWVRQAPGKGLEWVSQISNTGGHTYYADSVKGRFTISRDNSKNTLYLQMNSLRAEDTAVYYCAKYTGRWEPFDYWGQGTLVTVSS
B2: DOM1h-574-15 (other)
VH: B1 VH with G56D, K98I
B3: DOM1h-574-13 (other)
VH: B1 VH with G56D, H57R
B4: DOM1h-574-16 (other)
VH: B1 VH with L45P, G56D, H57R, K98I
B5: DOM1h-574-12 (other)
VH: B1 VH with G56D
B6: DOM1h-574-8 (other)
VH: B1 VH with L45P, K98I
B7: DOM1h-574-11 (other)
VH: B1 VH with Y108H
B8: DMS0121 (bispecific antibody)
chain: EVQLLESGGGLVQPGGSLRLSCAASGFTFVKYSMGWVRQAPGKGLEWVSQISNTADRTYYAHSVKGRFTISRDNSKNTLYLQMNSLRAEDTAVYYCAIYTGRWVPFEYWGQGTLVTVSSASGGGGSGGGGSGGGGSDIQMTQSPSSLSASVGDRVTITCRASRPIGTTLSWYQQKPGKAPKLLILWNSRLQSGVPSRFSGSGSGTDFTLTISSLQPEDFATYYCAQAGTHPTTFGQGTKVEIKR
B9: DMS0111 (bispecific antibody)
chain: EVQLLESGGGLVQPGGSLRLSCAASGFTFVKYSMGWVRQAPGKGLEWVSQISNTADRTYYAHSVKGRFTISRDNSKNTLYLQMNSLRAEDTAVYYCAIYTGRWVPFEYWGQGTLVTVSSASTDIQMTQSPSSLSASVGDRVTITCRASRPIGTTLSWYQQKPGKAPKLLILWNSRLQSGVPSRFSGSGSGTDFTLTISSLQPEDFATYYCAQAGTHPTTFGQGTKVEIKR
B10: DMS0112 (bispecific antibody)
chain: B9 chain with T154M, W172F, N173G
B11: DMS0182 (bispecific antibody)
chain: EVQLLESGGGLVQPGGSLRLSCAASGFTFVKYSMGWVRQAPGKGPEWVSQISNTGDRTYYADSVKGRFTISRDNSKNTLYLQMNSLRAEDTAVYYCAIYTGRWEPFDYWGQGTLVTVSSASTDIQMTQSPSSLSASVGDRVTITCRASRPIGTTLSWYQQKPGKAPKLLIWFGSRLQSGVPSRFSGSGSGTDFTLTISSLQPEDFATYYCAQAGTHPTTFGQGTKVEIKRAAAEQKLISEEDLN
B12: DMS0186 (bispecific antibody)
chain: B11 chain with T154M, W171L
B13: DMS0118 (bispecific antibody)
chain: EVQLLESGGGLVQPGGSLRLSCAASGFTFVKYSMGWVRQAPGKGLEWVSQISNTADRTYYAHSVKGRFTISRDNSKNTLYLQMNSLRAEDTAVYYCAIYTGRWVPFEYWGQGTLVTVSSASTSGPSDIQMTQSPSSLSASVGDRVTITCRASQWIGSQLSWYQQKPGKAPKLLIMWRSSLQSGVPSRFSGSGSGTDFTLTISSLQPEDFATYYCAQGLMKPMTFGQGTKVEIKR
B14: DMS0184 (bispecific antibody)
chain: EVQLLESGGGLVQPGGSLRLSCAASGFTFVKYSMGWVRQAPGKGPEWVSQISNTGDRTYYADSVKGRFTISRDNSKNTLYLQMNSLRAEDTAVYYCAIYTGRWEPFDYWGQGTLVTVSSASTSGPSDIQMTQSPSSLSASVGDRVTITCRASRPIGTTLSWYQQKPGKAPKLLIWFGSRLQSGVPSRFSGSGSGTDFTLTISSLQPEDFATYYCAQAGTHPTTFGQGTKVEIKR
B15: DMS0115 (bispecific antibody)
chain: B14 chain with P45L, G55A, D62H, E104V, D107E, W175L, F176W, G177N
B16: DMS0116 (bispecific antibody)
chain: B14 chain with P45L, G55A, D62H, E104V, D107E, T158M, W175L
B17: DMS0188 (bispecific antibody)
chain: EVQLLESGGGLVQPGGSLRLSCAASGFTFVKYSMGWVRQAPGKGPEWVSQISNTGDRTYYADSVKGRFTISRDNSKNTLYLQMNSLRAEDTAVYYCAIYTGRWEPFDYWGQGTLVTVSSASTSGPSDIQMTQSPSSLSASVGDRVTITCRASRPIGTMLSWYQQKPGKAPKLLILFGSRLQSGVPSRFSGSGSGTDFTLTISSLQPEDFATYYCAQAGTHPTTFGQGTKVEIKRAAAEQKLISEEDLN
B18: DMS0163 (bispecific antibody)
chain: B17 chain with F176A, G177F
B19: DMS0169 (bispecific antibody)
chain: B17 chain with P45L, G55A, D62H, E104V, D107E
B20: DMS0124 (bispecific antibody)
chain: EVQLLESGGGLVQPGGSLRLSCAASGFTFVKYSMGWVRQAPGKGLEWVSQISNTADRTYYAHSVKGRFTISRDNSKNTLYLQMNSLRAEDTAVYYCAIYTGRWVPFEYWGQGTLVTVSSASGGGGSGGGGSGGGGSDIQMTQSPSSLSASVGDRVTITCRASQWIGSQLSWYQQKPGKAPKLLIMWRSSLQSGVPSRFSGSGSGTDFTLTISSLQPEDFATYYCAQGLMKPMTFGQGTKVEIKR
B21: DMS0168 (bispecific antibody)
chain: EVQLLESGGGLVQPGGSLRLSCAASGFTFVKYSMGWVRQAPGKGLEWVSQISNTADRTYYAHSVKGRFTISRDNSKNTLYLQMNSLRAEDTAVYYCAIYTGRWVPFEYWGQGTLVTVSSASTSGPSDIQMTQSPSSLSASVGDRVTITCRASQSIIKHLKWYQQKPGKAPKLLIYGASRLQSGVPSRFSGSGSGTDFTLTISSLQPEDFATYYCQQGARWPQTFGQGTKVEIKRAAAEQKLISEEDLN

The target of one assay is T1, human TNFR1 on MRC-5 cells. The assay is described as follows: cell-based or functional assay.
Take B1: the “MRC-5 EC50, fold of the EC50 of DOM1h-574-16” value was approximately 200 fold.
With B2, the “MRC-5 EC50” value turned out to be 0.3 µM.
With B3, the “MRC-5 EC50” value is 0.3 µM.
With B4, the “MRC-5 EC50” value was 0.008 µM.
For B5, the “MRC-5 EC50” value worked out at 0.13 µM.
As for B6, the “MRC-5 EC50” value is 0.01 µM.
Regarding B7, the “MRC-5 EC50” value is 0.8 µM.

The target in the next assay is T1, human TNFR1 on MRC-5 cells. The assay is described as follows: cell-based or functional assay. This is another data set of the same source.
B8 had an MRC5 (ND50 in nM) of 1.8 nM.
In turn, B9 had an MRC5 (ND50 in nM) of 1.6 nM.
The molecule B10 came in with an MRC5 (ND50 in nM) of 1.3 nM.
For B11, the ND50 (MRC5) stood at 6 nM.
B12: the ND50 (MRC5) was 20 nM.
B13: the MRC5 (ND50 in nM) was 1.4 nM.
B14 registered an ND50 (MRC5) of 19 nM.
As to B15, the MRC5 (ND50 in nM) stood at 1.7 nM.
B16 yielded an MRC5 (ND50 in nM) of 1.7 nM.
As to B17, the ND50 (MRC5) amounted to 17 nM.
Take B18: the ND50 (MRC5) was 12 nM.
B19: the ND50 (MRC5) was found to be 2.7 nM.
B20 yielded an MRC5 (ND50 in nM) of 1.9 nM.
B21 showed an ND50 (MRC5) of 16 nM.
